The source of these data is patent publication US8729030B2 (Affymax, Inc., priority 2003, dated 2014).

Bridges are numbered along the chain shown (N, C = ends). Where no end group is shown, it is not given here. [ ]: non-standard residue; d: D form. 1Nal = N[C@@H](Cc1cccc2ccccc12)C(=O)O; Sar = CNCC(=O)O

In the assay the target is T1, human EPO-R (Homo sapiens, UniProt P19235).
T1 construct: expressed in transfected cells; host or cells: murine pre-B-cell line Baf3 (BaF3/Gal4/Elk/EPOR)
T1 sequence (P19235 25-508): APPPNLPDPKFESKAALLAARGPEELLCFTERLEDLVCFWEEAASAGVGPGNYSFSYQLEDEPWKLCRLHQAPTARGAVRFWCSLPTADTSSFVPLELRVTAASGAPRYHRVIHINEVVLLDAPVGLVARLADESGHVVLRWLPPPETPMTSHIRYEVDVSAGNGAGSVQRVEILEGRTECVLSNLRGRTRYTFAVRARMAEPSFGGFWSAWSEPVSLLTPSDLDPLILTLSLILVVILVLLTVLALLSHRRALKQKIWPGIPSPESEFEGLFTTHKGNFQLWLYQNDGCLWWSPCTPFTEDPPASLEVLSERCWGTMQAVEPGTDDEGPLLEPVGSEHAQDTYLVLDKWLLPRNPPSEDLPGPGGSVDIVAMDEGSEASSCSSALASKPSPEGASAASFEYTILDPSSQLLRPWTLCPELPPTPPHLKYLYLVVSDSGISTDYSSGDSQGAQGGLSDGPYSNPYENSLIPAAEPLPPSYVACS
Description: Proliferation assay (BaF3/Gal4/Elk/EPOR cells, MTT). The settings on record: Table 6, 48 h. The class given is cell-based. The protocol:
This assay is based upon a murine pre-B-cell line, Baf3, transfected to express human EPO-R. Proliferation of the resulting cell line, BaF3/Gal4/Elk/EPOR, is dependent on EPO-R activation. The degree of cell proliferation is quantitated using MTT, where the signal in the MTT assay is proportional to the number of viable cells.
The BaF3/Gal4/Elk/EPOR cells are cultured in spinner flasks in DMEM/F12 medium (Gibco) supplemented with 10% FBS (Hyclone) and 2% WEHI-3 supernatant (ATCC #TIB-68). Cultured cells are starved overnight, in a spinner flask at a cell density of 1×10^6 cells/ml, in DMEM/F12 medium supplemented with 10% FBS and 0.1% WEHI-3 supernatant. […] Absorbance of each well at a wavelength of 595 nm is then measured by spectrophotometry. Plots of the absorbance readings versus test peptide concentration are constructed and the EC50 calculated using Graph Pad software. The concentration of test peptide that results in a half-maximal absorbance is recorded as the EC50[See Table 2: Proliferation EC50].
The BaF3/Gal4/Elk/EPOR cells are cultured in spinner flasks in DMEM/F12 medium (Gibco) supplemented with 10% FBS (Hyclone) and 2% WEHI-3 supernatant (ATCC #TIB-68). […] Absorbance of each well at a wavelength of 595 nm is then measured by spectrophotometry. Plots of the absorbance readings versus test peptide concentration are constructed and the EC50 calculated using Graph Pad software. […]

In the case of “peptide dimer of monomers (AcG)GLYACHMGPIT(1-nal)VCQPLR(MeG)K (SEQ ID NO: 2) (Ac-GGLYACHMGPIT[1Nal]VCQPLR[Sar]K; disulfide 6-15 (inferred); not fully specified (residue 1); printed as (AcG)GLYACHMGPIT(1-nal)VCQPLR(MeG)K; also: homodimer, dimer linkage not given here) [Peptide I]”, the EC50 was 0.165 nM.

Usually EC50 stands for the concentration giving half of the maximal effect. The low end stands for a more potent agent, the high end for a less potent agent.
